Target: IMP1 KH34 Y396F (Gallus gallus) (UniProt O42254)
Assay: BLI
Conditions: N6-methyladenosine at position 6; BLI: 10 mM Na2HPO4 pH 6.5, 50 mM NaCl, 1 mM TCEP, 2 mg/ml BSA, 0.005% Tween-20, 25 C; NMR: 80 uM protein, 37 C, NMR buffer not printed (protein in 10 mM …)

Sequence of IMP1 KH34 Y396F (Gallus gallus) (O42254 387-573 Y396F): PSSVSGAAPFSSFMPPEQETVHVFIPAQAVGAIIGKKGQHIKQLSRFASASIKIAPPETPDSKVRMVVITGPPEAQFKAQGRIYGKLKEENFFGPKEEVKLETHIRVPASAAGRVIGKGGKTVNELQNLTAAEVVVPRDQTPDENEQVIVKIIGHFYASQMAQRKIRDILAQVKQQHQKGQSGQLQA

ACTB zipcode RNA, m6A
Kd: 3.7 nM

Reference: article PMC10484666
